{"source": "patent US9624285B2", "about": "“Methods of treating diabetes and compositions capable of same” (Ramot a Tel-Aviv University Ltd., priority 2010, dated 2017)", "key": {"Rin-m cells [1]": {"test_system": "Rin-m cells", "test": "MTT reduction assay", "assay_type": "cell-based", "protocol": "Rin-m cells (2×10^5 cells/ml) were cultured in 96-well micro plates (100 μl/well) and incubated overnight at 37° C. Human oligomers and rat IAPP was added to each well at various concentrations. Each measurement was repeated four times. Following incubation for 6 hours at 37° C., cell viability was evaluated using 3-(4,5-dimethylthiazolyl-2)-2,5-diphenyltetrazolium bromide (MTT) assay. Briefly, 20 μL of 5 mg/ml MTT dissolved in PBS was added to each well. After 4 hours incubation at 37° C., 100 μl of extraction buffer [20% SDS dissolved in a solution of 50% dimethylformamide and 50% DDW (pH 4.7)] was added to each well, and the plates were incubated again overnight at 37° C. Finally, color intensity was measured using an ELISA plate reader at 570 nm."}, "Rin-m cells [2]": {"test_system": "Rin-m cells", "test": "Confocal microscopy of cells incubated with labelled oligomers", "assay_type": "cell-based", "details": "5 μM", "protocol": "Rin-m cells were cultured on glass cover slips located in 24-well micro plates, then incubated for different periods with hIAPP-Hiytelfluor 488 (Anaspec, USA) oligomers (5 μM) at 37° C., as described in the cell cytotoxicity experiments section. After incubation cells were washed with PBS buffer and fixed with 4% paraformaldehyde in PBS for 5 minutes and washed with PBS buffer. Cells were treated with 1% Triton x-100 in PBS and stained with 50 μg/ml Phalloidin Tetramethyl-rhodamine B isothiocyanate (Sigma-Aldrich) in PBS 40 minutes in room temperature, followed by extensive wash with PBS buffer. The cells were imaged using LSM 510 confocal laser scanning microscope (Carl Zeiss Jena, Germany)."}, "[3]": {"test": "Oligomer stability assay (PAGE under non reducing conditions)", "assay_type": "physicochemical", "details": "dialyzed against PBS buffer, incubated at 37° C.", "protocol": "FIGS. 1A-E are graphs and photographs illustrating characterization of human IAPP oligomers. (FIG. 1A) PAGE analysis under non-reducing conditions of human IAPP oligomers and a negative control of non amyloidogenic rat IAPP (I-monomer, II-dimer and III-trimer). (FIG. 1B) Oligomer stability assay, hIAPP oligomers were dialyzed against PBS buffer and incubated at 37° C. Oligomer association/disassociation was monitored by PAGE analysis under non reducing conditions. (FIG. 1C) Size exclusion chromatography (Superdex 75 10/300, PBS buffer pH 7.4) of hIAPP oligomers; I-monomer, […], III-trimer and IV-90 kDa oligomer. (FIG. 1D) Transmittance electron microscopy (TEM) and atomic force microscopy (AFM) images of the ˜90 kDa oligomers, TEM scale bar 100 nm, AFM scale bar 600 nm. (FIG. 1E) CD spectroscopy of hIAPP and rIAPP, protein concentration of 5 μM. Each spectrum represents the average of three measurements.\nIAPP synthetic peptide (Human; H-7905, Bachem, Bubendorf, Switzerland. Rat; 74-5-10A, American peptide, California, U.S.A) was suspended in 100% 1,1,1,3,3,3 hexafluoro-2-propanol (HFIP) at 1 mg/ml and incubated for complete solubilization under shaking (100 rpm) at 37° C. for 2 hours. […] IAPP self-assembly products were analyzed by 15% Tris-tricine PAGE and stained with Imperial protein stain. […]"}, "Rin-m cells [4]": {"test_system": "Rin-m cells", "test": "Flow cytometry cell sorting (FACS) assay, Annexin V-FITC apoptosis detection", "assay_type": "cell-based", "details": "0.5 μM, 1 μM and 5 μM", "protocol": "Rin-m cells (5×10^5 cells/ml) were cultured for 4 hours at 37° C. incubated with human IAPP oligomers (final concentration of 0.5 μM, 1 μM and 5 μM). Samples were washed with PBS buffer and resuspended with 500 μl binding buffer. 5 μl of Annexin V-FITC and 10 μl of propidium iodide (Annexin V-FITC apoptosis detection kit; MBL) was added to the samples. After 10 minutes of incubation in the dark at RT, samples were analyzed using the FACS Sort (Beckton Dickinson) and results analyzed using the CellQuest program (Beckton Dickinson). Each measurement was repeated three times. FL1-H represents the fluorescence of V-FITC and FL2-H represents the fluorescence of […]."}, "[5]": {"details": "pancreatic RIN-m cells, 100 nM-10 μM, 6 hours"}}, "note": "No end group written: not given here."}
{"molecule": "rIAPP: non amyloidogenic rat IAPP synthetic peptide, negative control, treated in the same manner [reference compound]", "values": [{"measurement": "cell viability (MTT reduction)", "setting": "Rin-m cells [1]; [5]", "result": "showed no such effect"}]}
{"molecule": "hIAPP-Hiytelfluor 488 oligomers: oligomers of fluorescently labelled hIAPP-Hiytelfluor 488 (Anaspec) (KCNTATCATQRLANFLVHSSNNFGAILSSTNVGSNTY; not fully specified (C-terminus, bridges); cysteine pairing not given here; also: HiLyte Fluor 488 label, position not given here, oligomers; UniProt P10997 34-70, looked up)", "values": [{"measurement": "cell morphology (confocal)", "setting": "Rin-m cells [2]; after eight hours", "result": "Dramatic cell morphology changes"}, {"measurement": "cell numbers (confocal)", "setting": "Rin-m cells [2]; after four hours, insertion of oligomers to the cytoplasm", "result": "massive decline in cell numbers"}, {"measurement": "interaction of oligomers with cells (confocal)", "setting": "Rin-m cells [2]; after one hour", "result": "intensive localization of the oligomers to the cell membrane"}]}
{"molecule": "hIAPP oligomers: isolated stable oligomers (dimers, trimers, ~90 kDa) of synthetic human islet amyloid polypeptide prepared with HFIP, NaOH and SDS (peptide) peptide: MGILKLQVFLIVLSVALNHLKATPIESHQVEKRKCNTATCATQRLANFLVHSSNNFGAILSSTNVGSNTYGKRNAVEVLKREPLNYLPL", "values": [{"measurement": "oligomer stability (no disassembly or further polymerization to fibrils)", "setting": "[3]", "result": "up to 7 days"}, {"measurement": "oligomer stability (no disassembly or further polymerization to fibrils)", "setting": "[3]; listed as oligomeric structures", "result": "stable for up to seven days"}, {"measurement": "cell viability (MTT reduction)", "setting": "Rin-m cells [1]; [5]", "result": "dose dependent decrease in cell viability"}, {"measurement": "cell viability (MTT reduction)", "setting": "Rin-m cells [1]; pancreatic cells, 5 μM oligomers", "result": "reduced dramatically"}, {"measurement": "correlation of oligomer concentration with percentage of apoptotic cells", "setting": "Rin-m cells [4]", "result": "clear and strong correlation"}, {"measurement": "cell state (apoptosis) by FACS", "setting": "Rin-m cells [4]; 4 hours", "result": "mostly in the early and late apoptotic phase"}]}
